Assay results taken from patent US20120107324A1.
One block for each substance: values may come before it.

Assays:
[1] = biological target: β1 chain (integrin β1) (human) (UniProt P05556); assay: FACS on HT29 cells, isotype control; human secondary 2.8
[2] = biological target: human α5β1 integrin (human) (UniProt P08648); assay: FACS on human α5β1-transfected 300.19 cells, 2.0 ug/mL
[3] = biological target: human α5β1 integrin (human) (UniProt P08648); assay: FACS on human α5β1-transfected against untransfected 300.19 cells, 2.0 ug/mL
αvβ6 integrin = αvβ6 integrin (UniProt P06756); assay: FACS on HT29 cells, positive control; Gt anti Mouse alone 2.52
Sequence of αvβ6 integrin (P06756 31-1048, chain 1 of 2): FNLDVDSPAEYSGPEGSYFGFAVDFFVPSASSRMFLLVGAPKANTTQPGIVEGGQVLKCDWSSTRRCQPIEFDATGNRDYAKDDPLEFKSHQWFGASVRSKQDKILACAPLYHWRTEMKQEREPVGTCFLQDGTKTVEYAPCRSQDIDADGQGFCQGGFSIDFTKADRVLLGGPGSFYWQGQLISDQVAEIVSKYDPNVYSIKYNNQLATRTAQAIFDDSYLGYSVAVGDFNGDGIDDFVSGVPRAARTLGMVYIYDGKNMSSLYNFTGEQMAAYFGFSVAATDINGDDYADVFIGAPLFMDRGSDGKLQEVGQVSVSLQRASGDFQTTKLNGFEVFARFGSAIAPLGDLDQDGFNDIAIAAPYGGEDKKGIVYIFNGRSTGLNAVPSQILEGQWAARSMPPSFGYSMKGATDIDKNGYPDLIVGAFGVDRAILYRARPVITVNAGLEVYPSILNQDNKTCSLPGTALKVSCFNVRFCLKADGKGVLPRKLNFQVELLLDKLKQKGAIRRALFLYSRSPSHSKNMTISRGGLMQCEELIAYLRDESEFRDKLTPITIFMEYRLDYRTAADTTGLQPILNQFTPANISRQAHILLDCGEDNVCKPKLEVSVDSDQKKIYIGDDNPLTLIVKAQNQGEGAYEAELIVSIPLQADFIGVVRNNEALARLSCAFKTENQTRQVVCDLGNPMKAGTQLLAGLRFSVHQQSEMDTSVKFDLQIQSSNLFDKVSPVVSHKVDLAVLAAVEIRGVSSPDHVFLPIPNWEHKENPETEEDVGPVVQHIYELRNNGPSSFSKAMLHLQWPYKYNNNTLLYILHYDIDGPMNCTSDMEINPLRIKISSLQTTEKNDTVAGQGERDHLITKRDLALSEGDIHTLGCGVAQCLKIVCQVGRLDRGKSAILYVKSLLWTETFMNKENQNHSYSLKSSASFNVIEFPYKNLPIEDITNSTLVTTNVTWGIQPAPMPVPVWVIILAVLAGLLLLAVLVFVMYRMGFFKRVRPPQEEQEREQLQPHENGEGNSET
Sequence of αvβ6 integrin (P18564 22-788, chain 2 of 2, further chain): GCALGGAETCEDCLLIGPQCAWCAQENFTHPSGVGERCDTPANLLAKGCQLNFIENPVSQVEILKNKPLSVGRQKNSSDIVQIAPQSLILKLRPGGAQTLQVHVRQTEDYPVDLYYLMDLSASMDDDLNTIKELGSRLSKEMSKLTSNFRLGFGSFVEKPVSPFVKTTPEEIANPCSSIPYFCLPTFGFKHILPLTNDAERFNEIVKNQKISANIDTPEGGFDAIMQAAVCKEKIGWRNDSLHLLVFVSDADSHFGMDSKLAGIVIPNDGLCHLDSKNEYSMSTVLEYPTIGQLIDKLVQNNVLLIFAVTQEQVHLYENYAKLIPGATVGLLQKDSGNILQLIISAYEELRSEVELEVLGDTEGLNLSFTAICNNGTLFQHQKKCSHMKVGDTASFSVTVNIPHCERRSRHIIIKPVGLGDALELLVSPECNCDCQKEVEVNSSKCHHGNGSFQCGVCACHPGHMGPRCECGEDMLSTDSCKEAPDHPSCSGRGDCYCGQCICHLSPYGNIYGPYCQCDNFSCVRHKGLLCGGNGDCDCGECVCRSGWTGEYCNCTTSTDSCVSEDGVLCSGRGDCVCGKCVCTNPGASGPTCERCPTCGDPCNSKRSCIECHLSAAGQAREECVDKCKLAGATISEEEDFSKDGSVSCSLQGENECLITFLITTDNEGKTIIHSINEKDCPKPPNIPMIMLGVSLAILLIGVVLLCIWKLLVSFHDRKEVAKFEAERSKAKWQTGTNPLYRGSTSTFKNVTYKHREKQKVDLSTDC

Macaque α5β1 (Macaque) [4] = assay: FACS on macaque T-cells, isotype control; Goat anti Mouse IgGFc Cy5 alone 2
[5] = biological target: β1 chain (integrin β1) (human) (UniProt P05556); assay: FACS on HT29 cells, isotype control; Gt anti Mouse alone 2.52
αv integrin chain = αv integrin chain (UniProt P06756); assay: FACS on HT29 cells, positive control; Gt anti Mouse alone 2.52
Sequence of αv integrin chain (P06756 31-1048 limits assumed): as the sequence (P06756 31-1048, chain 1 of 2) above

[6] = biological target: Macaque αv chain (Macaque); assay: FACS on macaque T-cells; Goat anti Mouse IgGFc Cy5 alone 2
[7] = biological target: Macaque β1 chain (Macaque); assay: as above
[8] = biological target: β1 chain (integrin β1) (human) (UniProt P05556); assay: FACS on HT29 cells; Gt anti Mouse alone 2.52
Macaque α5β1 (Macaque) [9] = assay: FACS on macaque T-cells, isotype control; Goat anti Human IgG Fc Cy5 alone 3
[10] = biological target: human α5β1 integrin (human) (UniProt P08648); assay: FACS on human α5β1-transfected against untransfected 300.19 cells, 0.02 ug/mL
[11] = biological target: human α5β1 integrin (human) (UniProt P08648); assay: FACS on human α5β1-transfected 300.19 cells, 0.02 ug/mL
[12] = biological target: β1 chain (integrin β1) (human) (UniProt P05556); assay: FACS on HT29 cells (α5 null, β1 present); Gt anti Mouse alone 2.52
[13] = biological target: human α5β1 integrin (human) (UniProt P08648); assay: FACS on human α5β1-transfected 300.19 cells, 0.2 ug/mL
[14] = biological target: human α5β1 integrin (human) (UniProt P08648); assay: FACS on human α5β1-transfected against untransfected 300.19 cells, 0.2 ug/mL

Sequence of β1 chain (integrin β1) (human) (P05556 21-798): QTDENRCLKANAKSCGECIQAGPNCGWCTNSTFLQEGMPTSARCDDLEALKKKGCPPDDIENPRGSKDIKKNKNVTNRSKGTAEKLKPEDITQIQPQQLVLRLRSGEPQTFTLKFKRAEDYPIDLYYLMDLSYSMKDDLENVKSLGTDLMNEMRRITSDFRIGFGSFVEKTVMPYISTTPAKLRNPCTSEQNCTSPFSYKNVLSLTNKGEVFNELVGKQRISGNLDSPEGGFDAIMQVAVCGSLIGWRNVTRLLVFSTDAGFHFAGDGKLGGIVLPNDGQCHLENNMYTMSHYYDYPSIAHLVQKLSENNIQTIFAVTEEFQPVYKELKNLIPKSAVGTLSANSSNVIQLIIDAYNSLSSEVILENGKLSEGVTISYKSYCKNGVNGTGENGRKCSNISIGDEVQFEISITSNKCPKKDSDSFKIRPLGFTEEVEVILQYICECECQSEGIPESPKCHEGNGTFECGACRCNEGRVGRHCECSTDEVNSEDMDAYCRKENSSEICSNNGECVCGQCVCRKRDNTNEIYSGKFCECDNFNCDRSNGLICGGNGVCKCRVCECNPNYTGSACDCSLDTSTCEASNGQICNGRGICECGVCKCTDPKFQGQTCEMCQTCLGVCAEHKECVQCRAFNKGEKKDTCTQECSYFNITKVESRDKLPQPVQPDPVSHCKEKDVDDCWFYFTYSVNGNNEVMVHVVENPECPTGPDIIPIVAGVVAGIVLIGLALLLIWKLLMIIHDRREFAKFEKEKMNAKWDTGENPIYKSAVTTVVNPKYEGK
Sequence of human α5β1 integrin (human) (P08648 42-1049, chain 1 of 2): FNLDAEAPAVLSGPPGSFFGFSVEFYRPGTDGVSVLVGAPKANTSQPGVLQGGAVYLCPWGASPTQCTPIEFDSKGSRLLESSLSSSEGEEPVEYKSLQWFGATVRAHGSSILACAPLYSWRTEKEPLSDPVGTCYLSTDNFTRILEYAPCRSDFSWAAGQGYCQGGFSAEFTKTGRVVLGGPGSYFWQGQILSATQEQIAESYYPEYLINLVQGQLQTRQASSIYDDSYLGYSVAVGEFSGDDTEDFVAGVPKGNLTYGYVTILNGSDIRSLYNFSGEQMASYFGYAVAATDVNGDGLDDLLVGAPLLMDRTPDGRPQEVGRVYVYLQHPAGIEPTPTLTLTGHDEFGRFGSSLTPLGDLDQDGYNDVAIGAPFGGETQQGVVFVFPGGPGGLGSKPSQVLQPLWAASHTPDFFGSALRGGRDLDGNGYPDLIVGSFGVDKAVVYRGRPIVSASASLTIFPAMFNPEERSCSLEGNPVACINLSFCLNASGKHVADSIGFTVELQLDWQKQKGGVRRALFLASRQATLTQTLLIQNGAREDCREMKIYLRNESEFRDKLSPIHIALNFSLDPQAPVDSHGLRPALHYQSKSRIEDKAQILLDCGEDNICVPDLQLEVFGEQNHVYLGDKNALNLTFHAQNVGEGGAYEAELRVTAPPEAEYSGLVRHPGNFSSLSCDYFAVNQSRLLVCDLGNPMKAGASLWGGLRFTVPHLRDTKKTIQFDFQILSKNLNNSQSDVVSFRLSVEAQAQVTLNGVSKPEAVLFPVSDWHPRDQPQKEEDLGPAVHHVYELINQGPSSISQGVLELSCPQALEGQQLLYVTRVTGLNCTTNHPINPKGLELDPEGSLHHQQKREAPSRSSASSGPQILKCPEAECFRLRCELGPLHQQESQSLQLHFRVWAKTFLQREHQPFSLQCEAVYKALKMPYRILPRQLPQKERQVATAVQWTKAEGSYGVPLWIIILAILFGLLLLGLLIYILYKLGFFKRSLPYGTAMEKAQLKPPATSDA
Sequence of human α5β1 integrin (human) (P05556 21-798, chain 2 of 2, further chain): as the sequence (P05556 21-798) above

Binding Geomean [1]: 2.84 | X Geo Mean [2]: 12 | Ratio (α5β1 expressing B300.19 cells against B300.19 cells) [3]: 0.8
Substance: Human IgG2 (antibody)

Binding Geomean (αvβ6 integrin): 39.2
Substance: MAB2077Z (antibody)

Binding Geomean [1]: 3.2
Substance: Human IgG4 (antibody)

Geo Mean on Macaque T-cells IgG detection (Macaque α5β1 (Macaque) [4]): 2 | X Geo Mean [2]: 14.9 | Ratio (α5β1 expressing B300.19 cells against B300.19 cells) [3]: 0.9 | Binding Geomean [5]: 2.55
Substance: Mouse IgG1 (antibody)

Binding Geomean (αv integrin chain): 294 | Geo Mean on Macaque T-cells IgG detection [6]: 3
Substance: L230 (antibody)

Binding Geomean [5]: 10.2
Substance: Mouse IgG2a (antibody)

Geo Mean on Macaque T-cells IgG detection [7]: 141 | Binding Geomean [8]: 362
Substance: 4B4 (antibody)

Geo Mean on Macaque T-cells IgG detection (Macaque α5β1 (Macaque) [9]): 3
Substance: Human IgG2/4 (antibody)

Ratio (α5β1 expressing B300.19 cells against B300.19 cells) [10]: 2.5 | X Geo Mean [11]: 45.1 | Binding Geomean [12]: 2.69 | X Geo Mean [2]: 194 | Ratio (α5β1 expressing B300.19 cells against B300.19 cells) [3]: 9.5 | X Geo Mean [13]: 152 | Ratio (α5β1 expressing B300.19 cells against B300.19 cells) [14]: 6.9
Substance: mAb 1969 (antibody)
